# Assay results from patent US10287317B2, “Proprotein convertase subtilisin kexin type 9 (PCSK9) allosteric binding ligands to modulate serum low density lipoprotein (LDL) levels” (SRX Cardio, LLC, priority 2013, dated 2019).
# Where no end group is shown, it is not given here.
# Key:
# PCSK9-D374Y protein = PCSK9-D374Y protein (Homo sapiens, UniProt Q8NBP7, D374Y); assay: Cellular diI-LDL uptake in HuH7 cells with PCSK9-D374Y; type: cell-based
# Method: (§1) HuH7 cells were incubated in a 96-well plate for a total of 20 h in the absence (Cnt) or presence of 0.5 μg/ml PCSK9-D374Y protein alone (DY) or mixed with 100 uM of various SRX peptides. After 16 h, dil-LDL (5 ug/ml) was added to the incubation mixtures. After 4 h, fluorescence was measured (Ex: 520 nm/Em: 575 nm; cutoff: 550 nm). Dil-LDL uptake is calculated as RFU corrected for the number of cells.
# as §1, with “PCSK9 GOF-D374Y” for “PCSK9-D374Y”, “increasing concentrations” for “100 uM”
# (§2) LDL internalization was measured by uptake of a fluorescently tagged LDL molecule (diI-LDL) in the absence of exogenous PCSK9 (Cnt), in the presence of exogenous PCSK9 (normal PCSK9=WT, D374Y mutant PCSK9=DY), or in the presence of PCSK9 and a tested peptide (indicated as SRX##, or SRX if a single peptide results is shown in a graph).
# (§3) Cells, such as HepG2, HuH7, FL83B or a cell line transfected with a short-hairpin PCSK9 knockdown sequence such as HepG2/shPCSK9, HuH7/shPCSK9, FL83B/shPCSK9, were seeded at 2×10^4 cells/well in a 96-well plate and cultured at 37 degC in RPMI+10% FBS. After approximately 24 hours, the cell media was aspirated off and replaced with RPMI+3-5 mg/mL LPDS (Lipoprotein Deficient Serum, Millipore) media for further experimentation. Benjannet et al., “Effects of the prosegment and pH on the activity of PCSK9: evidence for additional processing events” J Biol Chem. 285(52): 40965-40978 (2010).
# (§4) Peptide activity was assessed by culturing cells with: i) no SRX peptide/PCSK9 protein complex (control, Cnt); ii) PCSK9 protein; and iii) SRX peptide/PCSK9 complex. Various permutations of these experimental conditions were also used, including: i) the addition of wild type PCSK9 (WT); ii) a mutant PCSK9 (e.g., D374Y mutant PCSK9, DY); iii) various SRX peptides and/or PCSK9 at the same concentration and/or combinations; iv) various SRX peptides and/or PCSK9 at different concentrations and/or combinations; v) the use of different cells, as mentioned above, with or without a transfected short-hairpin sequence; vi) a pre-incubation of the PCSK9 and SRX peptide (e.g., 1, hour, 2 hours, 3 hours, 4 hours etc.); vii) various temperatures including, but not limited to, body temperature (e.g., 37° C.), supraphysiologic temperature (e.g., 39° C.); and viii) with/without agitation (e.g., shaker or gentle periodic vortexing).
# (§5) Cells were cultured using one of the combinations of conditions described in the preceding paragraph for 16 hours. After 16 hours, a quantity of diI-LDL (Low density lipoprotein coupled with 1,1′-dioctadecyl-3,3,3′,3′-tetramethylindocarbocyanine perchlorate) needed to bring the media concentration to 5 ug/mL of diI-LDL was added to the culture well and cells continued to be cultured under these new conditions for 4 additional hours. At the end of the 4-hour incubation period (20 total hours of cell culture), the cellular uptake was halted with the addition of 4% formaldehyde in 10 uM Hoechst 33342 in a solvent such as deionized autoclaved water or PBS, and specimens were incubated at 20° C. for 20 minutes. Cell specimens were rinsed twice with PBS and then fluorescence measured with excitation at 360 nm and emission detected at 460 nm to measure DNA content. Cell specimens were then be incubated with a 0.1% SDS in a 0.1 N NaOH solution while being shaken for 10 minutes. Fluorescence of the diI-LDL in the specimens were quantified using excitation at 530 nm and resulting emission at 580 nm.
# Fluorescence measurements of diI-LDLR were normalized to estimated cell numbers, determined from the Hoechst fluorescence. […]
# PCSK9-WT protein = biological target: T1, PCSK9-WT protein (Homo sapiens, UniProt Q8NBP7); assay: Cellular diI-LDL uptake in HuH7 cells with PCSK9-WT; type: cell-based; settings: HuH7, 1.0 μg/ml PCSK9-WT, 100 uM peptide (FIG. 2)
# T1 construct: V5
# Method: as §1, with “1.0” for “0.5”, “PCSK9-WT” for “PCSK9-D374Y”, “(WT)” for “(DY)”
# as §2, §3, §4, §5
# Fluorescence measurements of diI-LDLR were normalized to estimated cell numbers, determined from the Hoechst fluorescence. Data was analyzed for the different experimental conditions and reported as percentage relative fluorescence units (RFU) of the Cnt specimen. Percent inhibition was calculated as the difference in RFU of a peptide exposed specimen to the RFU of PCSK9-no peptide, divided by the RFU difference in PCSK9-no peptide to RFU of Cnt specimen, also expressed as [(SRX:RFU)−(PCSK9-no peptide:RFU)]/[(PCSK9-no peptide:RFU)−(Cnt:RFU)]×100.
# PCSK9-D374Y protein, sequence (Q8NBP7 153-692 D374Y): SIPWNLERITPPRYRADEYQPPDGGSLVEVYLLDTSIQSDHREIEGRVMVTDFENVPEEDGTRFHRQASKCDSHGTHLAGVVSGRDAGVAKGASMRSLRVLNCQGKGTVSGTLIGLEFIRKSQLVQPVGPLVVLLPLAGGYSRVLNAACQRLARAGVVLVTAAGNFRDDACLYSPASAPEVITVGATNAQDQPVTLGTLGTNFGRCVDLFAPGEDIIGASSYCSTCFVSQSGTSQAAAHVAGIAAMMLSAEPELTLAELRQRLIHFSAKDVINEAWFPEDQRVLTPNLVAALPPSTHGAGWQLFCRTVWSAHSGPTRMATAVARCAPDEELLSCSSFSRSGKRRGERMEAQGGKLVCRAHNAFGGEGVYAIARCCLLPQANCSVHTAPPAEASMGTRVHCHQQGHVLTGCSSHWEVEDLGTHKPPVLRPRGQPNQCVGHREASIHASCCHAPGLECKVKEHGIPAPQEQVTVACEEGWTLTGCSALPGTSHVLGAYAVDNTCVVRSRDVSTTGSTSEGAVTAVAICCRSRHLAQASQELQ
# T1 sequence (Q8NBP7 153-692): as the sequence (Q8NBP7 153-692 D374Y) above, with Y222D counted along it
substance,measurement,setting,value
Val-Tyr-Val-Arg-Phe-Trp (VYVRFW; not fully specified (C-terminus); printed as Val-Tyr-Val-Arg-Phe-Trp) [Compound 1],LDL internalization (dil-LDL % uptake vs Cnt),"PCSK9-D374Y protein; HuH7, 0.5 μg/ml PCSK9-D374Y, 100 uM peptide (FIG. 3)",positively modulated (increased)
same,LDL internalization (dil-LDL % uptake vs Cnt),"PCSK9-D374Y protein; HuH7, 0.5 μg/ml PCSK9 GOF-D374Y, increasing concentrations of peptide (FIG. 4)",positively modulated (increased)
same,dose dependence of positive modulation of LDL internalization,"PCSK9-D374Y protein; HuH7, PCSK9 GOF-D374Y (FIG. 4)",positive modulation in a dose dependent manner
same,percent inhibition (dil-LDL uptake),"PCSK9-D374Y protein; HuH7, PCSK9 GOF-D374Y, peptide at 11.1 uM (FIG. 4 bottom panel)",~0%
same,LDL internalization (dil-LDL % uptake vs Cnt),PCSK9-WT protein,positively modulated (increased)
